Measurements reported in patent US6790633.

Target: rat brain farnesyl:protein transferase (rat) (UniProt Q04631)
Assay: cell-based or functional assay

fold decline in affinity for the enzyme	concentration required for inhibition	fold decrease in affinity for the enzyme against CVIM, as estimated by the concentration required for 50% inhibition	Substance	also measured
> 50 fold	–	–	CVIM with glutamic acid at the A2 position (peptide)	–
–	> 40 µM	–	CVIM with glycine at the X position (peptide)	–
–	> 40 µM	> 30 fold	CVIM with lysine at the X position (peptide)	–
> 50 fold	–	> 30 fold	CVIM with lysine at the A2 position (peptide)	–
–	> 40 µM	–	CVIM with glutamic acid at the X position (peptide)	–
–	–	–	CVIM with glycine at the A2 position (peptide)	concentration giving 50% inhibition: 8 µM
